Data: publication PMC5228590 (Journal of bone and mineral research : the official journal …, 2016)

Molecular target: vimentin (mouse (endogenous in MC-3T3 and in …, UniProt P20152 1-466))
Assay: co-IP

Sequence of vimentin (mouse (P20152 whole entry): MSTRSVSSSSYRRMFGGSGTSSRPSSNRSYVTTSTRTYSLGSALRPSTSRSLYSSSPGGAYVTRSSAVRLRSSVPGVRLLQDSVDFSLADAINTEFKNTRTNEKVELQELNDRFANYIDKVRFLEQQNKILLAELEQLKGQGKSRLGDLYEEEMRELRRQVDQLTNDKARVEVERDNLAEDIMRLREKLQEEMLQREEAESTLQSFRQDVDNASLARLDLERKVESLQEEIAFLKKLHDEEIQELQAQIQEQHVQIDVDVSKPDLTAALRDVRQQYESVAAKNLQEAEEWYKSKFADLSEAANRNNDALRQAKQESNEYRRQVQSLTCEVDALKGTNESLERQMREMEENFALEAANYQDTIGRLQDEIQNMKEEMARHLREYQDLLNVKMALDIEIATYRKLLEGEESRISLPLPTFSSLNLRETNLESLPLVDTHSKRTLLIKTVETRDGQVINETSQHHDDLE

- fold increase of the association with IGF-I: 3.5 fold
B1: activated PKCζ (phosphorylated on threonine 410) (enzyme, mouse (endogenous in MC-3T3), UniProt Q02956 1-592, looked up)
chain: MPSRTDPKMDRSGGRVRLKAHYGGDILITSVDAMTTFKDLCEEVRDMCGLHQQHPLTLKWVDSEGDPCTVSSQMELEEAFRLVCQGRDEVLIIHVFPSIPEQPGMPCPGEDKSIYRRGARRWRKLYRANGHLFQAKRFNRGAYCGQCSERIWGLSRQGYRCINCKLLVHKRCHVLVPLTCRRHMDSVMPSQEPPVDDKNDGVDLPSEETDGIAYISSSRKHDNIKDDSEDLKPVIDGVDGIKISQGLGLQDFDLIRVIGRGSYAKVLLVRLKKNDQIYAMKVVKKELVHDDEDIDWVQTEKHVFEQASSNPFLVGLHSCFQTTSRLFLVIEYVNGGDLMFHMQRQRKLPEEHARFYAAEICIALNFLHERGIIYRDLKLDNVLLDADGHIKLTDYGMCKEGLGPGDTTSTFCGTPNYIAPEILRGEEYGFSVDWWALGVLMFEMMAGRSPFDIITDNPDMNTEDYLFQVILEKPIRIPRFLSVKASHVLKGFLNKDPKERLGCRPQTGFSDIKSHAFFRSIDWDLLEKKQTLPPFQPQITDDYGLDNFDTQFTSEPVQLTPDDEDVIKRIDQSEFEGFEYINPLLLSAEESV
modifications: phosphothreonine at 410
